Reference: the supplement of paper PMC5998384

Key:
[1] = test system: HeLa Kyoto; test: solubility in G1/S (NP-40 vs SDS abundance) (log2 ratio); higher = more soluble; conditions: cell cycle stage: G1/S
[2] = test system: HeLa Kyoto; test: melting temperature (median over replicates), in situ; higher = more thermally stable
[3] = test system: HeLa Kyoto; test: solubility change mitosis vs G1/S (difference of NP-40 vs SDS log2 ratios) (log2 ratio difference); higher = more soluble in mitosis
[4] = test system: HeLa Kyoto; test: thermal stability score vs G1/S (z-score of summed log2 fold changes over temperatures); higher = more thermally stable than in G1/S
[5] = cell cycle stage: early G1 (4.5 h after nocodazole release)
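Throughout, for melting temperature (median over replicates), in situ: HeLa Kyoto cells synchronized by double thymidine or nocodazole block, proteins quantified by TMT10plex mass spectrometry, three independent biological replicates.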
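Throughout, for solubility change mitosis vs G1/S (difference of NP-40 vs SDS log2 ratios): synchronized HeLa Kyoto cells (double thymidine block for G1/S, nocodazole release for mitosis), protein amounts in NP-40 versus SDS lysates quantified by mass spectrometry, three biological replicates.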
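Throughout, for solubility in G1/S (NP-40 vs SDS abundance): HeLa Kyoto cells arrested at G1/S by double thymidine block, proteins quantified by TMT10plex mass spectrometry in mild NP-40 versus SDS extracts, three biological replicates.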
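Throughout, for thermal stability score vs G1/S (z-score of summed log2 fold changes over temperatures): synchronized HeLa Kyoto cells, proteins quantified by TMT10plex mass spectrometry, three biological replicates, mitosis taken 0.5 h after nocodazole release, G1/S directly after double thymidine block.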

Sequence | solubility in G1/S (log2) [1] | melting temperature ([2]; cell cycle stage: G1/S) [°C] | melting temperature ([2]; cell cycle stage: mitosis) [°C] | solubility change mitosis (log2) [3] | thermal stability score [4, 5] | thermal stability score ([4]; cell cycle stage: mitosis)
MALKMVKGSIDRMFDKNLQDLVRGIRNHKEDEAKYISQCIDEIKQELKQDNIAVKANAVCKLTYLQMLGYDISWAAFNIIEVMSASKFTFKRIGYLAASQSFHEGTDVIMLTTNQIRKDLSSPSQYDTGVALTGLSCFVTPDLARDLANDIMTLMSHTKPYIRKKAVLIMYKVFLKYPESLRPAFPRLKEKLEDPDPGVQSAAVNVICELARRNPKNYLSLAPLFFKLMTSSTNNWVLIKIIKLFGALTPLEPRLGKKLIEPLTNLIHSTSAMSLLYECVNTVIAVLISLSSGMPNHSASIQLCVQKLRILIEDSDQNLKYLGLLAMSKILKTHPKSVQSHKDLILQCLDDKDESIRLRALDLLYGMVSKKNLMEIVKKLMTHVDKAEGTTYRDELLTKIIDICSQSNYQYITNFEWYISILVELTRLEGTRHGHLIAAQMLDVAIRVKAIRKFAVSQMSALLDSAHLLASSTQRNGICEVLYAAAWICGEFSEHLQEPHHTLEAMLRPRVTTLPGHIQAVYVQNVVKLYASILQQKEQAGEAEGAQAVTQLMVDRLPQFVQSADLEVQERASCILQLVKHIQKLQAKDVPVAEEVSALFAGELNPVAPKAQKKVPVPEGLDLDAWINEPLSDSESEDERPRAVFHEEEQRRPKHRPSEADEEELARRREARKQEQANNPFYIKSSPSPQKRYQDTPGVEHIPVVQIDLSVPLKVPGLPMSDQYVKLEEERRHRQKLEKDKRRKKRKEKEKKGKRRHSSLPTESDEDIAPAQQVDIVTEEMPENALPSDEDDKDPNDPYRALDIDLDKPLADSEKLPIQKHRNTETSKSPEKDVPMVEKKSKKPKKKEKKHKEKERDKEKKKEKEKKKSPKPKKKKHRKEKEERTKGKKKSKKQPPGSEEAAGEPVQNGAPEEEQLPPESSYSLLAENSYVKMTCDIRGSLQEDSQVTVAIVLENRSSSILKGMELSVLDSLNARMARPQGSSVHDGVPVPFQLPPGVSNEAQYVFTIQSIVMAQKLKGTLSFIAKNDEGATHEKLDFRLHFSCSSYLITTPCYSDAFAKLLESGDLSMSSIKVDGIRMSFQNLLAKICFHHHFSVVERVDSCASMYSRSIQGHHVCLLVKKGENSVSVDGKCSDSTLLSNLLEEMKATLAKC [AP3D1] | -0.378 | 50.8 | 50.6 | -0.178 | -1.02 | -1.46
MALKQEMAKSLLKTASLSGRTKLLHQTGLSLYSTSHGFYEEEVKKTLQQFPGGSIDLQKEDNGIGILTLNNPSRMNAFSGVMMLQLLEKVIELENWTEGKGLIVRGAKNTFSSGSDLNAVKSLGTPEDGMAVCMFMQNTLTRFMRLPLISVALVQGWALGGGAEFTTACDFRLMTPESKIRFVHKEMGIIPSWGGTTRLVEIIGSRQALKVLSGALKLDSKNALNIGMVEEVLQSSDETKSLEEAQEWLKQFIQGPPEVIRALKKSVCSGRELYLEEALQNERDLLGTVWGGPANLEAIAKKGKFNK [ECHDC1] | 0.284 | 56.5 | 58.1 | -0.0468 | -1.01 | -1.18
MALLCLDGVFLSSAENDFVHRIQEELDRFLLQKQLSKVLLFPPLSSRLRYLIHRTAENFDLLSSFSVGEGWKRRTVICHQDIRVPSSDGLSGPCRAPASCPSRYHGPRPISNQGAAAVPRGARAGRWYRGRKPDQPLYVPRVLRRQEEWGLTSTSVLKREAPAGRDPEEPGDVGAGDPNSDQGLPVLMTQGTEDLKGPGQRCENEPLLDPVGPEPLGPESQSGKGDMVEMATRFGSTLQLDLEKGKESLLEKRLVAEEEEDEEEVEEDGPSSCSEDDYSELLQEITDNLTKKEIQIEKIHLDTSSFVEELPGEKDLAHVVEIYDFEPALKTEDLLATFSEFQEKGFRIQWVDDTHALGIFPCLASAAEALTREFSVLKIRPLTQGTKQSKLKALQRPKLLRLVKERPQTNATVARRLVARALGLQHKKKERPAVRGPLPP [R3HCC1] | -0.047 | – | 51.1 | -0.0167 | -0.563 | -0.284
MALLCYNRGCGQRFDPETNSDDACTYHPGVPVFHDALKGWSCCKRRTTDFSDFLSIVGCTKGRHNSEKPPEPVKPEVKTTEKKELCELKPKFQEHIIQAPKPVEAIKRPSPDEPMTNLELKISASLKQALDKLKLSSGNEENKKEEDNDEIKIGTSCKNGGCSKTYQGLESLEEVCVYHSGVPIFHEGMKYWSCCRRKTSDFNTFLAQEGCTKGKHMWTKKDAGKKVVPCRHDWHQTGGEVTISVYAKNSLPELSRVEANSTLLNVHIVFEGEKEFDQNVKLWGVIDVKRSYVTMTATKIEITMRKAEPMQWASLELPAAKKQEKQKDATTD [CHORDC1] | 0.0558 | 52 | 52.4 | -0.122 | -0.00128 | 0.22
MALLHSGRVLPGIAAAFHPGLAAAASARASSWWTHVEMGPPDPILGVTEAFKRDTNSKKMNLGVGAYRDDNGKPYVLPSVRKAEAQIAAKNLDKEYLPIGGLAEFCKASAELALGENSEVLKSGRFVTVQTISGTGALRIGASFLQRFFKFSRDVFLPKPTWGNHTPIFRDAGMQLQGYRYYDPKTCGFDFTGAVEDISKIPEQSVLLLHACAHNPTGVDPRPEQWKEIATVVKKRNLFAFFDMAYQGFASGDGDKDAWAVRHFIEQGINVCLCQSYAKNMGLYGERVGAFTMVCKDADEAKRVESQLKILIRPMYSNPPLNGARIAAAILNTPDLRKQWLQEVKVMADRIIGMRTQLVSNLKKEGSTHNWQHITDQIGMFCFTGLKPEQVERLIKEFSIYMTKDGRISVAGVTSSNVGYLAHAIHQVTK [GOT2] | 0.165 | 59.4 | 58.8 | -0.0966 | -1.18 | -2.25
MALLPRALSAGAGPSWRRAARAFRGFLLLLPEPAALTRALSRAMACRQEPQPQGPPPAAGAVASYDYLVIGGGSGGLASARRAAELGARAAVVESHKLGGTCVNVGCVPKKVMWNTAVHSEFMHDHADYGFPSCEGKFNWRVIKEKRDAYVSRLNAIYQNNLTKSHIEIIRGHAAFTSDPKPTIEVSGKKYTAPHILIATGGMPSTPHESQIPGASLGITSDGFFQLEELPGRSVIVGAGYIAVEMAGILSALGSKTSLMIRHDKVLRSFDSMISTNCTEELENAGVEVLKFSQVKEVKKTLSGLEVSMVTAVPGRLPVMTMIPDVDCLLWAIGRVPNTKDLSLNKLGIQTDDKGHIIVDEFQNTNVKGIYAVGDVCGKALLTPVAIAAGRKLAHRLFEYKEDSKLDYNNIPTVVFSHPPIGTVGLTEDEAIHKYGIENVKTYSTSFTPMYHAVTKRKTKCVMKMVCANKEEKVVGIHMQGLGCDEMLQGFAVAVKMGATKADFDNTVAIHPTSSEELVTLR [GSR] | 0.127 | 58.8 | 59.7 | -0.09 | -1.7 | -2.29
MALLSEGLDEVPAACLSPCGPPNPTELFSESRRLALEELVAGGPEAFAAFLRRERLARFLNPDEVHAILRAAERPGEEGAAAAAAAEDSFGSSHDCSSGTYFPEQSDLEPPLLELGWPAFYQGAYRGATRVETHFQPRGAGEGGPYGCKDALRQQLRSAREVIAVVMDVFTDIDIFRDLQEICRKQGVAVYILLDQALLSQFLDMCMDLKVHPEQEKLMTVRTITGNIYYARSGTKIIGKVHEKFTLIDGIRVATGSYSFTWTDGKLNSSNLVILSGQVVEHFDLEFRILYAQSKPISPKLLSHFQSSNKFDHLTNRKPQSKELTLGNLLRMRLARLSSTPRKADLDPEMPAEGKAERKPHDCESSTVSEEDYFSSHRDELQSRKAIDAATQTEPGEEMPGLSVSEVGTQTSITTACAGTQTAVITRIASSQTTIWSRSTTTQTDMDENILFPRGTQSTEGSPVSKMSVSRSSSLKSSSSVSSQGSVASSTGSPASIRTTDFHNPGYPKYLGTPHLELYLSDSLRNLNKERQFHFAGIRSRLNHMLAMLSRRTLFTENHLGLHSGNFSRVNLLAVRDVALYPSYQ [FAM83D] | -0.213 | 49.8 | 49.4 | -0.133 | 0.13 | -0.391
MALLVLGLVSCTFFLAVNGLYSSSDDVIELTPSNFNREVIQSDSLWLVEFYAPWCGHCQRLTPEWKKAATALKDVVKVGAVDADKHHSLGGQYGVQGFPTIKIFGSNKNRPEDYQGGRTGEAIVDAALSALRQLVKDRLGGRSGGYSSGKQGRSDSSSKKDVIELTDDSFDKNVLDSEDVWMVEFYAPWCGHCKNLEPEWAAAASEVKEQTKGKVKLAAVDATVNQVLASRYGIRGFPTIKIFQKGESPVDYDGGRTRSDIVSRALDLFSDNAPPPELLEIINEDIAKRTCEEHQLCVVAVLPHILDTGAAGRNSYLEVLLKLADKYKKKMWGWLWTEAGAQSELETALGIGGFGYPAMAAINARKMKFALLKGSFSEQGINEFLRELSFGRGSTAPVGGGAFPTIVEREPWDGRDGELPVEDDIDLSDVELDDLGKDEL [PDIA6] | 0.44 | 55.1 | 56.2 | -0.1 | 4.84 | 4.76
MALNKNHSEGGGVIVNNTESILMSYDHVELTFNDMKNVPEAFKGTKKGTVYLTPYRVIFLSKGKDAMQSFMMPFYLMKDCEIKQPVFGANYIKGTVKAEAGGGWEGSASYKLTFTAGGAIEFGQRMLQVASQASRGEVPSGAYGYSYMPSGAYVYPPPVANGMYPCPPGYPYPPPPPEFYPGPPMMDGAMGYVQPPPPPYPGPMEPPVSGPDVPSTPAAEAKAAEAAASAYYNPGNPHNVYMPTSQPPPPPYYPPEDKKTQ [WBP2] | 0.283 | 54.1 | 54.5 | -0.0665 | 0.182 | -1.41
MALPIIVKWGGQEYSVTTLSEDDTVLDLKQFLKTLTGVLPERQKLLGLKVKGKPAENDVKLGALKLKPNTKIMMMGTREESLEDVLGPPPDNDDVVNDFDIEDEVVEVENREENLLKISRRVKEYKVEILNPPREGKKLLVLDVDYTLFDHRSCAETGVELMRPYLHEFLTSAYEDYDIVIWSATNMKWIEAKMKELGVSTNANYKITFMLDSAAMITVHTPRRGLIDVKPLGVIWGKFSEFYSKKNTIMFDDIGRNFLMNPQNGLKIRPFMKAHLNRDKDKELLKLTQYLKEIAKLDDFLDLNHKYWERYLSKKQGQ [UBLCP1] | 0.159 | 49.5 | 50 | -0.142 | 0.941 | 2.39
MALQGISVVELSGLAPGPFCAMVLADFGARVVRVDRPGSRYDVSRLGRGKRSLVLDLKQPRGAAVLRRLCKRSDVLLEPFRRGVMEKLQLGPEILQRENPRLIYARLSGFGQSGSFCRLAGHDINYLALSGVLSKIGRSGENPYAPLNLLADFAGGGLMCALGIIMALFDRTRTGKGQVIDANMVEGTAYLSSFLWKTQKLSLWEAPRGQNMLDGGAPFYTTYRTADGEFMAVGAIEPQFYELLIKGLGLKSDELPNQMSMDDWPEMKKKFADVFAEKTKAEWCQIFDGTDACVTPVLTFEEVVHHDHNKERGSFITSEEQDVSPRPAPLLLNTPAIPSFKRDPFIGEHTEEILEEFGFSREEIYQLNSDKIIESNKVKASL [AMACR] | 0.155 | 52.1 | 52.5 | -0.0545 | 0.0452 | 0.6
